Laboratory results taken from FireProtDB (doi:10.1021/bi500238q).

Settings: Geobacillus kaustophilus (strain HTA426), pH 7, Thermal, CD, Potassium Phosphate Buffer 10 mM, whole UniProt chain shown

B1: Dihydrofolate reductase wild type, Q5KZ26 (protein)
chain: MISHIVAMDENRVIGKDNRLPWHLPADLAYFKRVTMGHAIVMGRKTFEAIGRPLPGRDNVVVTRNRSFRPEGCLVLHSLEEVKQWIASRADEVFIIGGAELFRATMPIVDRLYVTKIFASFPGDTFYPPISDDEWEIVSYTPGGKDEKNPYEHAFIIYERKKAK
Tm (KCl 0.1 M): 66.9 °C | Tm (KCl 0.2 M): 67.9 °C | Tm (KCl 0.5 M): 68.3 °C | Tm (KCl 1 M): 70.1 °C | Tm (KCl 1.5 M): 71.7 °C | Tm (KCl 2 M): 73.8 °C | Tm (KF 0.1 M): 66.8 °C | Tm (KF 0.2 M): 67.5 °C | Tm (KF 0.5 M): 68.6 °C | Tm (KF 1 M): 71 °C | Tm (KF 1.5 M): 73.8 °C | Tm (KF 2 M): 74.6 °C | Tm (NaCl 0.1 M): 66.8 °C | Tm (NaCl 0.2 M): 67.2 °C | Tm (NaCl 0.5 M): 67.6 °C | Tm (NaCl 1 M): 69.5 °C | Tm (NaCl 1.5 M): 71.5 °C | Tm (NaCl 2 M): 73.4 °C
